Molecular target: the molecule itself
Assay: native gel or EMSA; 8% native PAGE; equal amounts (2.5 μg) of FLF and CHF mixed and incubated for 1 h at 4 °C; lanes CHF, FLF, FLF + CHF

B1: C-terminal half of human fascin 1 (CHF) (domain or fragment)
chain: not shown
notes: human fascin 1, residues 260-493 (beta3 and beta4-trefoil domains); also called N-terminal domain deletion (beta-trefoil 1 and 2); C-domain; not shown: His tag (from the vector pFastBacHT)
In the case of B1, the “stoichiometry N” value is reported as 2.

— article PMC9224989, “Structural Analysis of Human Fascin-1: Essential Protein for Actin Filaments Bundling” (Life, 2022)
